These results are taken from PMC10462243 (Research Square, 2023).

First the molecules themselves.
B2: Plk4 CPB(581–808), purified (domain or fragment, UniProt O00444 581-808, looked up)
chain: GYQNRTLRSITSPLVAHRLKPIRQKTKKAVVSILDSEEVCVELVKEYASQEYVKEVLQISSDGNTITIYYPNGGRGFPLADRPPSPTDNISRYSFDNLPEKYWRKYQYASRFVQLVRSKSPKITYFTRYAKCILMENSPGADFEVWFYDGVKIHKTEDFIQVIEKTGKSYTLKSESEVNSLKEEIKMYMDHANEGHRICLALESIISEEERKTRSAPFFPIIIGRKPG
notes: Plk4 cryptic polo-box, residues 581–808; Two copies for each Vpr•VprBP in the SEC complex; The construct has a TEV site

Holding throughout (experiment): SEC; purified Vpr, VprBP(1057–1507), Plk4 CPB(581–808) and DDB1; HisTrap eluate of VprBP and Vpr digested with TEV, mixed with Plk4 CPB; SEC in 20 mM Tris-HCl pH 7.5, 100 mM NaCl, 10% glycerol; stoichiometry estimated from Coomassie-stained protein intensity
Data set [1] addresses B2. The note with it: both partners purified.
The target of data set [2] is T1, Vpr•VprBP WD40-AR complex ( | HIV-1 (pNL4–3), UniProt Q9Y4B6;P12520).
T1 construct: VprBP (DCAF1) WD40 domain and acidic region; HIV-1 Vpr ORF; Chains as m38 and m37, formed by co-expression before Plk4 CPB was added; also called VprBP (WD40-AR)•Vpr complex; source: Tni-FNL insect cells, co-expressed, purified (HisTrap, TEV); not shown: His, N-terminal, cleaved; MBP, N-terminal, cleaved; copies: 1 + 1
The note with it: both partners purified.

Data set [3] deals with the molecule itself.

T1 sequence (Q9Y4B6 1057-1507, one chain of several): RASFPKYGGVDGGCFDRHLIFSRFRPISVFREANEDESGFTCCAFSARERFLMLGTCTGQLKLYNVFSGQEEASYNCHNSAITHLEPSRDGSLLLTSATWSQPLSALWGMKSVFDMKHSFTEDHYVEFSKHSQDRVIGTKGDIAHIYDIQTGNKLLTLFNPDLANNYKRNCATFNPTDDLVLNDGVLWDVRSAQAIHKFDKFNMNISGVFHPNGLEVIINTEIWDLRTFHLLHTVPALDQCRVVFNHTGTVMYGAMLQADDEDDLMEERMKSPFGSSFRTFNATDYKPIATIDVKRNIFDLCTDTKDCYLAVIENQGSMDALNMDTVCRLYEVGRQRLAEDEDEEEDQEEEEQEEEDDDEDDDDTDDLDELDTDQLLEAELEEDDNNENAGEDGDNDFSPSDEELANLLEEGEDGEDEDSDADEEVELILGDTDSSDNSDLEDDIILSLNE

B1: Vpr (insect cells, co-expressed with VprBP WD40-AR) (natural protein)
chain: MEQAPEDQGPQREPYNEWTLELLEELKSEAVRHFPRIWLHNLGQHIYETYGDTWAGVEAIIRILQQLLFIHFRIGCRHSRIGVTRQRRARNGASRS
notes: HIV-1 Vpr ORF, expressed on its own from a p10 promoter in the dual construct; also called 11-kDa Vpr; source: Tni-FNL insect cells, co-expressed with His-MBP-TEV-VprBP, purified (HisTrap, SEC)
As for B1, in data set [1], the binding result is on record as “binds”.

Usually stoichiometry N stands for the number of molecules, sites or subunits per partner or assembly. Consider B2, for which the “stoichiometry N” value in data set [2] was ~2. In addition, the binding result in data set [3] was “binds”.
